# Target: Human IgG4 monoclonal antibody (human)
# Experiment: ELISA; data not shown: the same plates in DMEM with 5% FCS and 5 g/L ovalbumin, hIgG4-coated wells compared with control wells coated with 200 µL of 100 µg/mL lactoferrin in TBS
row,Binder,fold absorbance over lactoferrin-coated control wells [fold]
1,"ASHTQKS [Clone 5 heptapeptide ASHTQKS, displayed on M13 phage]",> 3
2,"TNIESLK [Clone 36 heptapeptide TNIESLK, displayed on M13 phage]",> 3
3,"QPQMSHM [Clone 34 heptapeptide QPQMSHM, displayed on M13 phage]",> 3
4,"CPSTHWK [Clone 1 heptapeptide CPSTHWK, displayed on M13 phage]",> 3
5,"NCHKCWN [Clone 40 heptapeptide NCHKCWN, displayed on M13 phage]",> 3
6,"NVQYFAV [Clone 3 heptapeptide NVQYFAV, displayed on M13 phage]",> 3
7,"SHLSKNF [Clone 44 heptapeptide SHLSKNF, displayed on M13 phage]",> 3

# Target: Human IgG4 monoclonal antibody (human)
# Experiment: ELISA; hIgG4 coated on wells as in the screening; 2.5 × 10^11 phage particles in 100 µL per well in DMEM with 5% FCS and 5 g/L ovalbumin, in triplicate; original phage library assayed beside the clones
Binder,fold absorbance over the original phage library [fold],ELISA signal [AU],fold ELISA signal over the original phage library [fold]
"ASHTQKS [Clone 5 heptapeptide ASHTQKS, displayed on M13 phage]",> 2.5,,
"TNIESLK [Clone 36 heptapeptide TNIESLK, displayed on M13 phage]",> 2.5,,
"QPQMSHM [Clone 34 heptapeptide QPQMSHM, displayed on M13 phage]",> 2.5,,
"CPSTHWK [Clone 1 heptapeptide CPSTHWK, displayed on M13 phage]",> 2.5,,
"NCHKCWN [Clone 40 heptapeptide NCHKCWN, displayed on M13 phage]",> 2.5,> 0.85,> 4
"NVQYFAV [Clone 3 heptapeptide NVQYFAV, displayed on M13 phage]",> 2.5,> 0.85,> 4
"SHLSKNF [Clone 44 heptapeptide SHLSKNF, displayed on M13 phage]",> 2.5,,

# From publication PMC6404062
